Patent US20120251547A1 (Amgen, published 2012)
Positions count from the first letter of the chain named. Read-outs that look alike come from different tables or passages of the source.

B1: AMH13/AML13 (antibody, IgG2, V domains shown)
VH: QVQLVESGGGVVQPGRSLRLSCAASGFTFSSYGMQWVRQAPGKGLEWVAVIWYDGNKKYYADSVKGRFTISRDNSKNTLYLQMNSLRAEDTAVYYCARGRVRDYYYGMDVWGQGTTVTVSS
VL: DIVMTQTPLSLSVTPGQPASIACKSSQSLLHSDGKTYLYWYLQKPGQPPQLLIYEVSTRFSGVPDRFSGSGSGTDFTLKISRVEAEDVGVFYCMQSIQLPLTFGGGTKVEIK
notes: human mAb from IgG2 XenoMouse mice; also called AM-13
B2: AMH5/AML5 (antibody, IgG2, V domains shown)
VH: QVQLQESGPGLVKPSETLPLTCTVSGGSIRSYYWSWIRQPAGKGLEWIGRIYRSGNTIYNPSLKSRVTMSIDTSKNQFSLTLSSVTAADTAVYYCARENYSESSGLYYYYGMDVWGQGTTVTVSS
VL: DIQMTQSPSSLSASVGDRVTITCRASQGIRNDLGWYQQKPGKAPKRLIYAASSFQSGVPSRFSGSGSGTGFTLTISSLQPEDFATYYCLQHNSYPPTFGQGTKVEIK
notes: human mAb from IgG2 XenoMouse mice; tested only as part of a non-clonal hybridoma supernatant; also called AM-5
B3: AMH1/AML1 (antibody, IgG2, V domains shown)
VH: QVQLQESGPGLVKPSETLSLTCTVSGGSISNYYWNWIRQSPGKGLEWIGDIYYSGSTNYNPSLKSRVTISVDTSKNQFSLKLSSVTTADTAVYYCARDGELANYYGSGSYQFYYYYGMDVWGQGTTVTVSS
VL: B2 VL with Q3L, F54L, G70E, Y94N, P96F, Q100P, E105D
notes: human mAb from IgG2 XenoMouse mice; also called AM-1; antibody H
B4: AMH11/AML11 (antibody, IgG2, V domains shown)
VH: QVQLVESGGGVVQPGRSLRLSCATSGITFSSYGMHWVRQAPGKGLEWVAVIWYDGSNKYYADSVKGRFTISRDNSKNTLYLQMNSLRAEDTAVYYCARDTKDYWGQGTLVTVSS
VL: EIVMTQSPATLSVSPGERATLSCRASQSVSSNLAWYQQKPGQAPRLLIYGASTRAAGIPARFSGGGSGTAFTLTISNLQSEDFAVYYCQHYINWPKWTFGQGTKVDIK
notes: human mAb from IgG2 XenoMouse mice; also called AM-11; antibody A
B5: AMH12/AML12 (antibody, IgG2, V domains shown)
VH: QVQLVQSGAEVKKPGASVKVSCKASGYTLTSYGISWVRQAPGQGLEWMGWISTYKGNTNYAQKLQGRVTMTTDTSTSTAYMELRSLRSDDTAVYYCARKQLVFDYWGQGTLVTVSS
VL: EIVMTQSPATLSVSPGERATLSCRASQSISSSLAWYQQKPGQAPRLLIYGASTRATGIPARFSGSGSGTEFTLTISSLQSENFAVYYCQQYDNWPLTFGGGTKVEIK
notes: human mAb from IgG2 XenoMouse mice; also called AM-12; antibody M
B6: AMH17/AML17 (antibody, V domains shown)
VH: B5 VH with S17A, S25T, T53A, K55S, N59K
VL: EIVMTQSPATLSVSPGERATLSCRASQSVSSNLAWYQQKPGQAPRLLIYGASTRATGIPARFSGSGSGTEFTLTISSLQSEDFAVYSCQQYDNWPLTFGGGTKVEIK
notes: human mAb from IgG2 XenoMouse mice; also called AM-17; antibody N

Legend:
[1] = biological target: T1, human IL-17RA, full-length, on cells (human, UniProt Q96F46 33-866); test: cell-based or functional assay
[2] = biological target: T2, cynomolgus IL-17RA, on cells (cynomolgus); test: FACS competition: non-clonal supernatant inhibiting biotin-huIL-17A (competitor) binding to cyno IL-17RA+ CHO cells
T2 construct: whole, on cells; also called CHO-cynoIL-17RA; cyno IL-17RA+ CHO cells

[3] = biological target: human IL-17RA (form used in the low resolution BIAcore not stated) (human, UniProt Q96F46 33-320, limits assumed); test: low resolution BIAcore, subcloned hybridoma
[4] = biological target: T1, human IL-17RA, full-length, on cells; test: cell-based or functional assay; remark: listed apart in the source
[5] = biological target: T2, cynomolgus IL-17RA, on cells; test: FACS competition: non-clonal supernatant inhibiting biotin-huIL-17A (competitor) binding to cyno IL-17RA+ CHO cells; remark: listed apart in the source
huIL-17RA-FLAG-polyHis [6] = biological target: T3, huIL-17RA-FLAG-polyHis (human, UniProt Q96F46 33-320); test: binning; IL-17RA held by bead mAb F
T3 construct: also called IL-17RA-FLAG-pHis; wild-type IL-17RA

huIL-17RA-FLAG-polyHis [7] = biological target: T3, huIL-17RA-FLAG-polyHis; test: binning; IL-17RA held by bead mAb K
huIL-17RA-FLAG-polyHis [8] = biological target: T3, huIL-17RA-FLAG-polyHis; test: binning; IL-17RA held by bead mAb J
huIL-17RA-FLAG-polyHis [9] = biological target: T3, huIL-17RA-FLAG-polyHis; test: binning; IL-17RA held by bead mAb O
huIL-17RA-FLAG-polyHis [10] = biological target: T3, huIL-17RA-FLAG-polyHis; test: binning; IL-17RA held by bead mAb C
huIL-17RA-FLAG-polyHis [11] = biological target: T3, huIL-17RA-FLAG-polyHis; test: binning; IL-17RA held by bead mAb L
huIL-17RA-FLAG-polyHis [12] = biological target: T3, huIL-17RA-FLAG-polyHis; test: binning; IL-17RA held by bead mAb E
huIL-17RA-FLAG-polyHis [13] = biological target: T3, huIL-17RA-FLAG-polyHis; test: binning; IL-17RA held by bead mAb G
huIL-17RA-FLAG-polyHis [14] = biological target: T3, huIL-17RA-FLAG-polyHis; test: binning; IL-17RA held by bead mAb H
huIL-17RA-FLAG-polyHis [15] = biological target: T3, huIL-17RA-FLAG-polyHis; test: binning; IL-17RA held by bead mAb P
huIL-17RA-FLAG-polyHis [16] = biological target: T3, huIL-17RA-FLAG-polyHis; test: binning; IL-17RA held by bead mAb M
huIL-17RA-FLAG-polyHis [17] = biological target: T3, huIL-17RA-FLAG-polyHis; test: binning; IL-17RA held by bead mAb I
huIL-17RA-FLAG-polyHis [18] = biological target: T3, huIL-17RA-FLAG-polyHis; test: binning; IL-17RA held by bead mAb Q
huIL-17RA-FLAG-polyHis [19] = biological target: T3, huIL-17RA-FLAG-polyHis; test: binning; IL-17RA held by bead mAb D
huIL-17RA-FLAG-polyHis [20] = biological target: T3, huIL-17RA-FLAG-polyHis; test: binning; IL-17RA held by bead mAb N
huIL-17RA-FLAG-polyHis [21] = biological target: T3, huIL-17RA-FLAG-polyHis; test: binning; IL-17RA held by bead mAb A
huIL-17RA-FLAG-polyHis [22] = biological target: T3, huIL-17RA-FLAG-polyHis; test: binning; IL-17RA held by bead mAb B
huIL-17RA-FLAG-polyHis [23] = biological target: T3, huIL-17RA-FLAG-polyHis; test: binning; IL-17RA held by bead mAb R

Row | Binder | % inhibition of IL-6 Production, IL-17A/HFF bioassay, non-clonal supernatant 1:4 [1] [%] | % inhibition of IL-6 Production, IL-17A/HFF bioassay, non-clonal supernatant 1:32 [1] [%] | % inhibition of IL-6 Production, IL-17A/HFF bioassay, non-clonal supernatant 1:128 [1] [%] | MFI [2] | Kd [3] [nM] | MFI [5] | normalized MFI (huIL-17RA-FLAG-polyHis [6]) | normalized MFI (huIL-17RA-FLAG-polyHis [7]) | normalized MFI (huIL-17RA-FLAG-polyHis [8]) | normalized MFI (huIL-17RA-FLAG-polyHis [9]) | normalized MFI (huIL-17RA-FLAG-polyHis [10]) | normalized MFI (huIL-17RA-FLAG-polyHis [11]) | normalized MFI (huIL-17RA-FLAG-polyHis [12]) | normalized MFI (huIL-17RA-FLAG-polyHis [13]) | normalized MFI (huIL-17RA-FLAG-polyHis [14]) | normalized MFI (huIL-17RA-FLAG-polyHis [15]) | normalized MFI (huIL-17RA-FLAG-polyHis [16]) | normalized MFI (huIL-17RA-FLAG-polyHis [17]) | normalized MFI (huIL-17RA-FLAG-polyHis [18]) | normalized MFI (huIL-17RA-FLAG-polyHis [19]) | further results
1 | B1 | 73 | 78 | 75 | 6 | 7.6 | – | – | – | – | – | – | – | – | – | – | – | – | – | – | – | IL-17A/HFF bioassay IC50, subclone 13 [4]: > 10 nM
2 | B2 | – | – | – | – | – | 9 | – | – | – | – | – | – | – | – | – | – | – | – | – | – | –
3 | B3 | – | – | – | – | – | 11 | – | – | – | – | – | – | – | – | – | – | – | – | – | – | –
4 | B4 | – | – | – | – | – | 9 | 345 | 7210 | 2320 | 3800 | 330 | 3020 | 300 | 454 | 8640 | 6590 | 1860 | 5300 | 9650 | 337 | normalized MFI (huIL-17RA-FLAG-polyHis [20]): 2650; normalized MFI (huIL-17RA-FLAG-polyHis [21]): -220; normalized MFI (huIL-17RA-FLAG-polyHis [22]): 1200; normalized MFI (huIL-17RA-FLAG-polyHis [23]): 7060
5 | B5 | 75 | 82 | 61 | 6 | 8.2 | – | 1410 | -5 | 31 | 49 | 3040 | 18 | 765 | 3280 | 73 | 1900 | 20 | 26 | 60 | 888 | normalized MFI (huIL-17RA-FLAG-polyHis [20]): 11; normalized MFI (huIL-17RA-FLAG-polyHis [21]): 1940; IL-17A/HFF bioassay IC50, subclone 17 [4]: 3.5 nM; IL-17A/HFF bioassay IC50, subclone 18 [4]: 3.7 nM; IL-17A/HFF bioassay IC50, subclone 20 [4]: 5.5 nM; normalized MFI (huIL-17RA-FLAG-polyHis [22]): 455; normalized MFI (huIL-17RA-FLAG-polyHis [23]): 40
6 | B6 | 90 | 81 | 73 | 8 | 8.2 | – | 1920 | -44 | 8 | 55 | 3980 | -1 | 999 | 4260 | 68 | 2470 | 40 | 18 | 98 | 1200 | normalized MFI (huIL-17RA-FLAG-polyHis [20]): 43; normalized MFI (huIL-17RA-FLAG-polyHis [21]): 2470; IL-17A/HFF bioassay IC50, subclone 21 [4]: 2.5 nM; IL-17A/HFF bioassay IC50, subclone 22 [4]: 5.3 nM; IL-17A/HFF bioassay IC50, subclone 23 [4]: 0.57 nM; normalized MFI (huIL-17RA-FLAG-polyHis [22]): 597; normalized MFI (huIL-17RA-FLAG-polyHis [23]): 76
